# Results taken from patent US20230279118A1 (published 2023).
# Where a chain is given by its changes, count along the chain named. In names and notes the source's numbering stands. Several values for one entry are separate records, joined by “and”; a condition that tells them apart may be missing. Equal values may be shown once.
# B1: wild-type canine IgG.B Fc (CH2 and CH3 domains) with upstream SASA tag (Fc fusion)
# chain: APEMLGGPSVFIFPPKPKDTLLIARTPEVTCVVVDLDPEDPEVQISWFVDGKQMQTAKTQPREEQFNGTYRVVSVLPIGHQDWLKGKQFTCKVNNKALPSPIERTISKARGQAHQPSVYVLPPSREELSKNTVSLTCLIKDFFPPDIDVEWQSNGQQEPESKYRTTPPQLDEDGSYFLYSKLSVDKSRWQRGDTFICAVMHEALHNHYTQESLSHSPGK
# B2: canine IgG.B Fc variant D378V with SASA tag (Fc fusion)
# chain: B1 chain with D148V
# B3: canine IgG.B Fc variant E380A with SASA tag (Fc fusion)
# chain: B1 chain with E150A
# B4: canine IgG.B Fc variant N434R with SASA tag (Fc fusion)
# chain: B1 chain with N206R
# B5: canine IgG.B Fc variant L252Y with SASA tag (Fc fusion)
# chain: B1 chain with L22Y
# B6: canine IgG.B Fc variant N434Y with SASA tag (Fc fusion)
# chain: B1 chain with N206Y
# B7: canine IgG.B Fc variant N434W with SASA tag (Fc fusion)
# chain: B1 chain with N206W
# B8: canine IgG.B Fc YTE variant (L252Y/A254T/T256E) with SASA tag (Fc fusion)
# chain: B1 chain with L22Y, A24T, T26E
# B9: canine IgG.B Fc variant N434H with SASA tag (Fc fusion)
# chain: B1 chain with N206H
# B10: canine IgG.B Fc variant G309P with SASA tag (Fc fusion)
# chain: B1 chain with G79P
# B11: canine IgG.B Fc variant N434A with SASA tag (Fc fusion)
# chain: B1 chain with N206A
# B12: canine IgG.B Fc variant N434S with SASA tag (Fc fusion)
# chain: B1 chain with N206S
# B13: canine IgG.B Fc variant T250Q with SASA tag (Fc fusion)
# chain: B1 chain with T20Q
# B14: canine IgG.B Fc variant T250E with SASA tag (Fc fusion)
# chain: B1 chain with T20E
# B15: canine IgG.B Fc variant Q311V with SASA tag (Fc fusion)
# chain: B1 chain with Q81V
# B16: canine IgG.B Fc variant I308A with SASA tag (Fc fusion)
# chain: B1 chain with I78A
# B17: canine IgG.B Fc variant Q311A with SASA tag (Fc fusion)
# chain: B1 chain with Q81A
# B18: canine IgG.B Fc variant G309A with SASA tag (Fc fusion)
# chain: B1 chain with G79A
# B19: canine IgG.B Fc variant P307A with SASA tag (Fc fusion)
# chain: B1 chain with P77A
# B20: canine IgG.B Fc variant A254S with SASA tag (Fc fusion)
# chain: B1 chain with A24S
# B21: canine IgG.B Fc variant T286A with SASA tag (Fc fusion)
# chain: B1 chain with T56A
# B22: canine IgG.B Fc variant T256A with SASA tag (Fc fusion)
# chain: B1 chain with T26A
# B23: canine IgG.B Fc variant H433A with SASA tag (Fc fusion)
# chain: B1 chain with H205A
# B24: canine IgG.B Fc variant L252A with SASA tag (Fc fusion)
# chain: B1 chain with L22A
# B25: canine IgG.B Fc variant Y436A with SASA tag (Fc fusion)
# chain: B1 chain with Y208A
# B26: canine IgG.B Fc variant M428A with SASA tag (Fc fusion)
# chain: B1 chain with M200A
# B27: canine IgG.B Fc variant D378A with SASA tag (Fc fusion)
# chain: B1 chain with D148A
# B28: canine IgG.B Fc variant Q285A with SASA tag (Fc fusion)
# chain: B1 chain with Q55A
# B29: canine IgG.B Fc variant K315A with SASA tag (Fc fusion)
# chain: B1 chain with K85A
# B30: canine IgG.B Fc variant T250A with SASA tag (Fc fusion)
# chain: B1 chain with T20A
# B31: canine IgG.B Fc variant L252M with SASA tag (Fc fusion)
# chain: B1 chain with L22M
# B32: canine IgG.B Fc variant A254T with SASA tag (Fc fusion)
# chain: B1 chain with A24T
# Target: T1, canine FcRn (canine)
# T1 construct: Injected in solution as SPR analyte
# Assay: SPR, pH 5.5, FcRn 400 nM over captured Fc; average of the wild type replicates
row,Kd [nM],Binder
1,566,B1

# Target: T1, canine FcRn
# Assay: SPR, pH 5.5, FcRn 200 nM over captured Fc
Kd,koff,kon,Binder
502 nM and 784 nM,0.169 s⁻¹ and 0.207 s⁻¹,336000 M⁻¹ s⁻¹ and 264000 M⁻¹ s⁻¹,B1
693 nM and 873 nM,0.159 s⁻¹ and 0.16 s⁻¹,229000 M⁻¹ s⁻¹ and 184000 M⁻¹ s⁻¹,B2

# Target: T1, canine FcRn
# Assay: SPR, pH 5.5, FcRn 200 nM over captured Fc
# Remark: another data set of the same source
Kd,koff,kon,Binder
1320 nM and 1570 nM,0.223 s⁻¹ and 0.239 s⁻¹,168000 M⁻¹ s⁻¹ and 152000 M⁻¹ s⁻¹,B3
1560 nM and 754 nM,0.179 s⁻¹ and 0.182 s⁻¹,115000 M⁻¹ s⁻¹ and 242000 M⁻¹ s⁻¹,B1

# Target: T1, canine FcRn
# Assay: SPR, pH 5.5, FcRn 100-800 nM over captured Fc
Kd [nM],koff [s⁻¹],kon [M⁻¹ s⁻¹],Binder
182,0.0801,440000,B4
173,0.0476,275000,B5
29.1,0.0151,520000,B6
101,0.045,446000,B7
3150,0.527,168000,B1
184,0.046,250000,B8
247,0.102,411000,B9

# Target: T1, canine FcRn
# Assay: SPR, pH 5.5, FcRn 200 nM over captured Fc
# Remark: another data set of the same source
Kd,koff,kon,Binder
635 nM and 434 nM and 637 nM and 718 nM,0.239 s⁻¹ and 0.242 s⁻¹ and 0.132 s⁻¹ and 0.145 s⁻¹,377000 M⁻¹ s⁻¹ and 558000 M⁻¹ s⁻¹ and 207000 M⁻¹ s⁻¹ and 202000 M⁻¹ s⁻¹,B10
884 nM and 862 nM,0.21 s⁻¹ and 0.218 s⁻¹,237000 M⁻¹ s⁻¹ and 253000 M⁻¹ s⁻¹,B1

# Target: T1, canine FcRn
# Assay: SPR, pH 5.5, FcRn 200 nM over captured Fc
# Remark: another data set of the same source
Kd,koff,kon,Binder
573 nM and 629 nM,0.156 s⁻¹ and 0.164 s⁻¹,272000 M⁻¹ s⁻¹ and 261000 M⁻¹ s⁻¹,B11
107 nM and 159 nM,0.0524 s⁻¹ and 0.0633 s⁻¹,488000 M⁻¹ s⁻¹ and 399000 M⁻¹ s⁻¹,B4
15.9 nM,0.00968 s⁻¹,607000 M⁻¹ s⁻¹,B6
40.4 nM and 75.7 nM,,,B7
924 nM and 1050 nM,0.207 s⁻¹ and 0.209 s⁻¹,225000 M⁻¹ s⁻¹ and 199000 M⁻¹ s⁻¹,B12
955 nM and 1310 nM,0.181 s⁻¹ and 0.209 s⁻¹,190000 M⁻¹ s⁻¹ and 159000 M⁻¹ s⁻¹,B1

# Target: T1, canine FcRn
# Assay: SPR, pH 5.5, FcRn 200 nM over captured Fc
# Remark: another data set of the same source
Kd,koff,kon,Binder
2590 nM and 2840 nM,0.258 s⁻¹ and 0.268 s⁻¹,99600 M⁻¹ s⁻¹ and 94300 M⁻¹ s⁻¹,B13
8990 nM and 3110 nM,0.347 s⁻¹ and 0.354 s⁻¹,38700 M⁻¹ s⁻¹ and 114000 M⁻¹ s⁻¹,B1
2480 nM and 1660 nM,0.284 s⁻¹ and 0.287 s⁻¹,114000 M⁻¹ s⁻¹ and 172000 M⁻¹ s⁻¹,B14

# Target: T1, canine FcRn
# Assay: SPR, pH 5.5, FcRn 200 nM over captured Fc
# Remark: another data set of the same source
Kd,koff,kon,Binder
639 nM and 692 nM,0.17 s⁻¹ and 0.171 s⁻¹,267000 M⁻¹ s⁻¹ and 247000 M⁻¹ s⁻¹,B1
372 nM and 439 nM,0.566 s⁻¹ and 0.696 s⁻¹,1.52e+06 M⁻¹ s⁻¹ and 1.59e+06 M⁻¹ s⁻¹,B15

# Target: T1, canine FcRn
# Assay: SPR, pH 5.5, FcRn 400 nM over captured Fc
Kd,koff,kon,Binder
618 nM and 747 nM,0.369 s⁻¹ and 0.18 s⁻¹,598000 M⁻¹ s⁻¹ and 241000 M⁻¹ s⁻¹,B3
457 nM and 494 nM,0.237 s⁻¹ and 0.477 s⁻¹,518000 M⁻¹ s⁻¹ and 966000 M⁻¹ s⁻¹,B11
472 nM and 563 nM,0.169 s⁻¹ and 0.194 s⁻¹,357000 M⁻¹ s⁻¹ and 345000 M⁻¹ s⁻¹,B16
368 nM and 370 nM,0.894 s⁻¹ and 0.496 s⁻¹,2.43e+06 M⁻¹ s⁻¹ and 1.34e+06 M⁻¹ s⁻¹,B17
245 nM and 294 nM,,,B18
325 nM and 338 nM,,,B19
340 nM and 317 nM,,,B20
464 nM and 569 nM,0.196 s⁻¹ and 0.304 s⁻¹,422000 M⁻¹ s⁻¹ and 533000 M⁻¹ s⁻¹,B21
447 nM and 298 nM,,,B22
266 nM and 359 nM,0.229 s⁻¹ and 0.0997 s⁻¹,,B23
292 nM and 240 nM,,,B24
393 nM and 876 nM,0.407 s⁻¹ and 0.213 s⁻¹,,B25
723 nM and 1670 nM,,234000 M⁻¹ s⁻¹ and 318000 M⁻¹ s⁻¹,B26
673 nM and 592 nM,0.183 s⁻¹ and 0.181 s⁻¹,272000 M⁻¹ s⁻¹ and 306000 M⁻¹ s⁻¹,B27
341 nM and 257 nM,,,B28
422 nM and 548 nM,,,B29
335 nM and 328 nM,,,B30

# Target: T1, canine FcRn
# Assay: SPR, pH 5.5, FcRn 200 nM over captured Fc
# Remark: another data set of the same source
Kd,koff,kon,Binder
869 nM and 774 nM,0.168 s⁻¹ and 0.169 s⁻¹,193000 M⁻¹ s⁻¹ and 218000 M⁻¹ s⁻¹,B31
98.7 nM and 114 nM,0.0397 s⁻¹ and 0.041 s⁻¹,402000 M⁻¹ s⁻¹ and 358000 M⁻¹ s⁻¹,B5
1710 nM and 2660 nM,0.288 s⁻¹ and 0.326 s⁻¹,168000 M⁻¹ s⁻¹ and 123000 M⁻¹ s⁻¹,B1

# Target: T1, canine FcRn
# Assay: SPR, pH 5.5, FcRn 200 nM over captured Fc
# Remark: another data set of the same source
Kd,koff,kon,Binder
2050 nM and 2990 nM,0.31 s⁻¹ and 0.315 s⁻¹,151000 M⁻¹ s⁻¹ and 105000 M⁻¹ s⁻¹,B1
2290 nM and 1340 nM,0.375 s⁻¹ and 0.433 s⁻¹,163000 M⁻¹ s⁻¹ and 323000 M⁻¹ s⁻¹,B32
